# Several values for one entry are separate records, joined by “and”; a condition that tells them apart may be missing. Identical values can stand only once.
# B1: L130R|G133D, Q6VS32 (parent)
# chain: CSSGGGGVAADIGAGLADALTAPLDHKDKSLQSLTLDQSVRKNEKLKLAAQGAEKTYGNGDSLNTGKLKNDKVSRFDFIRQIEVDGQLITLESGEFQIYKQDHSAVVALQIEKINNPDKIDSLINQRSFLVSGLGGEHTAFNQLPSGKAEYHGKAFSSDDPNGRLHYSIDFTKKQGYGRIEHLKTPEQNVELASAELKADEKSHAVILGDTRYGGEEKGTYHLALFGDRAQEIAGSATVKIREKVHEIGIAGKQ
# Variants of: B1
# Conditions: Neisseria meningitidis; pH 7; Thermal; DSC; PBS; whole UniProt chain shown
row,Variant,unfolding enthalpy (calorimetric)
1,CSSGGGGVAADIGAGLADALTAPLDHKDKSLQSLTLDQSVRKNEKLKLAAQGAEKTYGNGDSLNTGKLKNDKVSRFDFIRQIEVDGQLITLESGEFQIYKQDHSAVVALQIEKINNPDKIDSLINQRSFRVSDLGGEHTAFNQLPSGKAEYHGKAFSSDDPNGRLHYSIDFTKKQGYGRIEHLKTPEQNVELASAELKADEKSHAVILGDTRYGGEEKGTYHLALFGDRAQEIAGSATVKIREKVHEIGIAGKQ [L130R G133D],56.3 kcal/mol and 94 kcal/mol
2,CSSGGGGVAADIGAGLADALTAPLDHKDKSLQSLTLDQSVRKNEKLKLAAQGAEKTYGNGDSLNTGKLKNDKVSRFDFIRQIEVDGQLITLESGEFQIYKQDHSAVVALQIEKINNPDKIDSLINQRSFLVSDLGGEHTAFNQLPSGKAEYHGKAFSSDDPNGRLHYSIDFTKKQGYGRIEHLKTPEQNVELASAELKADEKSHAVILGDTRYGGEEKGTYHLALFGDRAQEIAGSATVKIREKVHEIGIAGKQ [G133D],96.8 kcal/mol and 96.1 kcal/mol

# Reference: FireProtDB (doi:10.1073/pnas.1507829112)
